Residue numbers refer to the chain shown, from its start.
T1: recombinant mouse GITR (mouse, UniProt O35714 20-153, limits assumed)
T1 construct: also called Mu GITR recomb protein; immobilized mouse GITR
T1 sequence (looked up): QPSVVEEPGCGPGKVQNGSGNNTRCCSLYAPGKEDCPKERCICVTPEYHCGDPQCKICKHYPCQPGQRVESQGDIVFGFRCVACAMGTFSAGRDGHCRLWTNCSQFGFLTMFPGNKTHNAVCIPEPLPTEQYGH

T2: purified recombinant human GITR protein (Example 1) (human, UniProt Q9Y5U5 26-162, limits assumed)
T2 construct: also called Hu GITR recomb protein; immobilized huGITR
T2 sequence: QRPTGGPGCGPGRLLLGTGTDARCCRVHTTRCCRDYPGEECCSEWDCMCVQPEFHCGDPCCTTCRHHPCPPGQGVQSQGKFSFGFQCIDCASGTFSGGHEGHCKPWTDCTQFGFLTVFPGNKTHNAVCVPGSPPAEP

T3: biotinylated GITR (human, UniProt Q9Y5U5 26-161, limits assumed, biotinylated (sites not given))
T3 construct: also called GITR-bio; Biotin-GITR
T3 sequence: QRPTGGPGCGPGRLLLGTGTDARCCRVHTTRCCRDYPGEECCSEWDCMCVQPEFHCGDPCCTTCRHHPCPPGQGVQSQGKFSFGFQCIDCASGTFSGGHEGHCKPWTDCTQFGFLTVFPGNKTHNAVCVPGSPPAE

T4: GITR antigen (R&D systems, di-sulfide-linked homodimer; 689-GR) (human, UniProt Q9Y5U5 26-161)
T4 construct: Bought
T4 sequence: T3 sequence

B1: mAb 231-1039-45 (murine) (antibody, mouse IgG1, V domains shown)
VH: QVQLLQSGTELVRPGVSVKISCKGSGYTFTDYAMYWVKQSHAKSLEWIGVIRTYSGDVTYNQKFKDKATMTVDKSSSIAYMELARLSSEDSAIYYCAKSGTVRGFAYWGQGTLVTVSS
VL: DIVMTQSPSSLTVTAGEKVIMSCKSSQSLLNSGNQKNYLTWYQQKPGQPPKLLIYWASTRESGVPDRFTGSGSGTDFTLTISSVQAEDLAVYHCQNDYSYPYTFGGGTKLEIK
notes: Mouse IgG1 from hybridoma
B2: mAb 231-1042-7 (murine) (antibody, mouse IgG1, V domains shown)
VH: B1 VH
VL: B1 VL
notes: Mouse IgG1 from hybridoma
B3: mAb 231-32-15 (murine) (antibody, mouse IgG1, V domains shown)
VH: B1 VH
VL: B1 VL
notes: Mouse IgG1 from hybridoma; also called antibody 32-15
B4: mAb 231-1333-21 (murine) (antibody, mouse IgG1, V domains shown)
VH: B1 VH
VL: B1 VL
notes: Mouse IgG1 from hybridoma
B5: germline variant antibody 70 (H1917B04 / K1917B04) (antibody, V domains shown)
VH: QVQLVQSGTEVKKPGASVKVSCKASGYTFTGYAMYWVRQAPGQGMEWIGVIRTYSGDVTYNQKFKDRATMTVDTSISTAYMELSRLRSDDTAVYYCAKSGTVRGFAYWGQGTLVTVSS
VL: DIVMTQSPDSLAVSLGERATINCKSSQSLLNSGNQKNYLSWYQQKPGQPPKLLIYWASTRESGVPDRFSGSGSGTDFTLTISSLQAEDVAVYHCQNDYSFPYTFGQGTKLEIK
notes: IGHG1/IGKC expression vectors; measured from CHO culture supernatant; also called Antibody ID 70
B6: germline variant antibody 97 (H1917G07 / K1917G07) (antibody, V domains shown)
VH: QVQLVQSGTEVKKPGASVKVSCKGSGYTFTEYAMHWVRQAPGQGMEWIGLIRTFSGGLSYNQKFRDRVTMTVDKSISTAYMELSRLRSDDTAVYYCAKSGTVRGFAYWGQGTLVTVSS
VL: B5 VL with S40T, Q43H, S69T, L84V, D97E
notes: IGHG1/IGKC expression vectors; measured from CHO culture supernatant; also called Antibody ID 97
B7: germline variant antibody 20 (H1916B12 / K1916B12) (antibody, V domains shown)
VH: B5 VH with G31D, M45L, Y54F, V58L, T59S, K65R, D66G, A68V
VL: B5 VL with S40T, L52M, I54L, S69T, L84V, F100Y
notes: IGHG1/IGKC expression vectors; measured from CHO culture supernatant; also called Antibody ID 20
B8: germline variant antibody 78 (H1917D01 / K1917D01) (antibody, V domains shown)
VH: B5 VH with T9A, A24G, G31D, M45L, R52K, D57G, K65R, S88G, Q110R
VL: B5 VL with S40T, Q43H, L52M, S69T, L84V, F100Y
notes: IGHG1/IGKC expression vectors; measured from CHO culture supernatant; also called Antibody ID 78
B9: germline variant antibody 18 (H1916B09 / K1916B09) (antibody, V domains shown)
VH: B5 VH with V50L, Y54F, D57E, K65R, D66G, A68V
VL: B5 VL with G33S, S40T, Q43H, L52M, S69T, L84V, H93Y, F100Y
notes: IGHG1/IGKC expression vectors; measured from CHO culture supernatant; also called Antibody ID 18
B10: Hum231#1 (antibody, V domains shown)
VH: B5 VH with T9A, A24G, G31D, M45L, T74K
VL: DIVMTQSPPTLSLSPGERVTLSCKSSQSLLNSGNQKNYLTWYQQKPGQAPRLLIYWASTRESGIPARFSGSGSGTDFTLTISSLQPEDFAVYHCQNDYSYPYTFGQGTKLEIK
notes: Variable regions cloned with IGHG1 (also IGHG4 and Fab vectors exist) and IGKC constant regions; format in each assay not always stated; also called humanized variant Hum231#1 (IGHV1-2*02 and IGK3-7*02)
B11: germline variant antibody 21 (H1916C03 / K1916C03) (antibody, V domains shown)
VH: B6 VH with E31G, A33V, L50V, G57D, L58V, D66E, K74T
VL: B5 VL with S40T, Q43H, L84V, F100Y
notes: IGHG1/IGKC expression vectors; measured from CHO culture supernatant; also called Antibody ID 21
B12: germline variant antibody 5 (H1916A06 / K1916A06) (antibody, V domains shown)
VH: B6 VH with T9A, M45L, I48M, F54Y, L58V, S59T, D66G, K74T
VL: DIVMTQSPDSLAAPGERATINCKSSQSLLNSSNQKNYLTWYHQKPGQPPKLLIYWASTRESGVPDRFTGSGSGTDFTLTISSVQAEDVAVYYCQNEYSFPYTFGQGTKLEIK
notes: IGHG1/IGKC expression vectors; measured from CHO culture supernatant; also called Antibody ID 5

How the values were obtained:
recombinant mouse GITR = biological target: T1, recombinant mouse GITR; test: Western blot, non-reducing
Procedure: The specificity of the anti-GITR-antibodies was tested by Western blot against purified recombinant human GITR, recombinant mouse GITR, CMS5a cells transfected with human GITR, wild-type CMS5a cells, activated CD4⁺ T cells and untreated CD4⁺ T cells. The Western blot, under non-reducing conditions, is depicted in FIG. 1. The anti-GITR antibodies were reactive with purified recombinant human GITR, not reactive with recombinant mouse GITR, reactive with recombinant human GITR in CMS5a cells, and reactive with natural human GITR in activated CD4⁺ T cells.

[1] = biological target: T2, purified recombinant human GITR protein …; test: SPR (BIAcore), huGITR immobilized on CM5, antibody 6.25-100 nM
Procedure: Analysis of ligand (GITR-L) and monoclonal antibody binding to immobilized huGITR was performed by surface plasmon resonance and measured on BIAcore®. GITR (˜1100 RU) was immobilized onto a CM5 sensor chip using standard amine coupling. Analytes were injected over the immobilized GITR for 15 minutes at a flow rate of 5 μl/min followed by a 10 minute dissociation period. After kinetic runs had been performed the affinity and dissociation constants were simultaneously calculated by BiaEvaluation® software (Biacore Life Sciences). Binding of human GITR-L was analysed over a concentration range of 12.5-200 nM and murine anti-GITR monoclonal antibodies were analysed over a concentration of 6.25-100 nM. […] Affinity and dissociation constants for the antibodies are tabulated below in Table 9.

biotinylated GITR = biological target: T3, biotinylated GITR; test: BLI (Octet), biotin-GITR on streptavidin tips, antibody supernatant
Procedure: Several hundred germlined antibodies were selected based on binding kinetics as determined by Octet measurements (Octet RED 96 system; ForteBio™ Inc., Menlo Park, Calif.). The experimental procedure was configured according to the instruction manual of the instrument. Biotin-GITR was bound to Streptavidin biosensor (SA) and PBS (pH 7.4) was used as a blank control. Briefly, the interaction analyses were conducted at 30° C. in running buffer (PBS, 0.05% Tween, pH7.4). Sensor tips were pre-wet for 10 minutes in running buffer immediately prior to use, and the micro plates used in the Octet were filled with 200 μl of sample or buffer per well and agitated at 800 rpm. For the experiments, commercially available precoated SA tips were used. Biotinylated GITR was loaded onto the ForteBio SA fibers in PBS pH7.4 for 10 minutes and washed for 4 minutes. For the association phase, the ligand-coated SA tips were immersed for 5 minutes in cell culture supernatant that was diluted 1:10 in running buffer prior to the measurement. Dissociation of the antibody-antigen complex was measured in wells containing the Octet buffer alone for 5 minutes. After each run, the tips were regenerated with Glycine (10 mM, pH 2.0). Affinity, Kₒₙ and Koff were determined with Octet evaluation software v6.3 using a 1:1 binding model with local full fitting.

[2] = biological target: T4, GITR antigen (R&D systems, …); test: SPR (BIAcore T100/T200), antibody captured via anti-human Fab, GITR antigen 40/10/2.5 nM, 1:1 model
Procedure: All interactions were analyzed at 25° C. using 1× DPBS (PAA, H15-002) plus P20 (0.05%, Pierce, 28320) as running buffer. Anti-GITR antibodies (8 μg/ml in running buffer) were captured to the chip surface of a CM5 sensor chip (GE Healthcare, Series S CM5, BR-1005-30) via an immobilized anti-human Fab antibody (GE Healthcare, Fab Capture Kit, 28958325). To detect unspecific interactions of the GITR antigen, antibody capture was only performed in flow cell 2, whereas in flow cell 1 only the capturing antibody was immobilized. In addition, an unrelated antibody (anti-IL-1β; SK48E26; International Publication No. WO 95/001997) was used to assess specificity of GITR binding. After capture of the anti-GITR antibodies GITR antigen (R&D systems, di-sulfide-linked homodimer; 689-GR) was run through both flow cells in different amounts (40 nM, 10 nM and 2.5 nM) for each antibody. Also a blank curve (running buffer only) was included in each run. Association was run for 90 s and dissociation for 600 s with a flow rate of 10 μl/min. After each run a regeneration step was performed with 10 mM Glycine pH2.0 (GE Healthcare, BR-1003-55) for 60 s with 30 μl/min. Binding curves were evaluated using BIAcore® T200 evaluation software version 2.0.1 applying a Langmuir 1:1 model with global fit of Rmax.

Binder	binding result (recombinant mouse GITR)	Ka [1] [M⁻¹]	Kd [1] [nM]	Kd (biotinylated GITR) [nM]	koff (biotinylated GITR) [s⁻¹]	kon (biotinylated GITR) [M⁻¹ s⁻¹]	further results
B1	no binding	4.2e+08	2.38				
B2	no binding	4.3e+08	2.33				
B3	no binding	4.04e+08	2.47				
B4	no binding	4.19e+08	2.39				
B5				2.01	0.000879	437000	
B6				1.43	0.000761	534000	
B7				1.35	0.00038	283000	
B8				1	0.000327	325000	
B9				3.77	0.000824	219000	
B10							Kd [2]: 0.702 nM; koff [2]: 0.00249 s⁻¹; kon [2]: 3.55e+06 M⁻¹ s⁻¹
B11				8.44	0.00261	309000	
B12				1.63	0.000966	591000	

— patent US20210070872A1 (AGENUS, published 2021)
